Results published in patent US7109015B2, “Removal of N-terminal methionine from proteins by engineered methionine aminopeptidase” (Academia Sinica, priority 2004, dated 2006).
Where “and” joins values, the source holds several entries; their conditions need not be identical. Equal entries are not always repeated. Marks after values point to notes of the source that are not given here.

Legend:
Met-tagged onconase = assay: In vivo catalytic activity of MetAPs co-expressed with Met-tagged onconase in E. coli BL21(DE3); N-terminus by Edman degradation; assay type: cell-based
From the text: Residues Tyr168, Met206 and Gln233 in the putative substrate-binding site of E. coli MetAP were mutated by site-directed mutagenesis based on the crystal structure and amino acid sequence alignment of MetAPs (Ben-Bassat et al., 1987; Lowther et al., 1999; Walker et al., 1999). For the expression of secretory ribonucleases, the ribonuclease gene was cloned and expressed as described previously (Huang et al., 1998).
Most of the co-expressed target protein, e.g., onconase or RC-RNase L1, existed in insoluble cell lysate. They were denatured, renatured and purified as described previously (Liao et al., 2003). The purified ribonucleases were stored in 20 mM sodium phosphate, pH 7.0, for pyroglutamate formation at the N-terminus. Alternatively, the ribonuclease secreted into culture medium through pe1B system was concentrated and purified to electrophoretical homogeneity at a yield of 1˜5 mg per 1 liter of culture (Huang et al., 1998).

RC-RNase4 = assay: In vivo Met removal, co-expression in E. coli, RC-RNase 4 substrate; assay type: cell-based, Rana catesbeiana; conditions: solubility −
Method: The MetAP was expressed alone or co-expressed with a target protein, i.e., onconase and RC-RNaseL1, in E. coli BL21 (DE3) in the presence of 0.5 mM IPTG at 37° C.
Proteins in the cell pellet or in the soluble fraction were separated by 13.3% SDS-PAGE and contact-transferred to ProBlott™ membrane (Applied Bioystems) in transfer buffer (10 mM Tris-HCl, pH 7.5, 50 mM NaCl, 2 mM EDTA, 0.5 mM 2-mercaptoethanol) overnight. The five N-terminal residues of the transferred protein were determined by Edman degradation. The percentage of Met removal was calculated by dividing the amount of proteins initiated with the penultimate residue with the amount of total proteins (including proteins initiated with the penultimate residue and unprocessed protein initiated with Met) after the first degradation cycle. In theory, this percentage should remain the same after each degradation cycle. Therefore, in order to avoid experimental variation, the same calculation was made from five consecutive degradation cycles, e.g., M, Q, N, W and L for onconase. The efficiency of Met removal is reported as the mean values of at least three cycles.

[1] = substrate MAA-Onc, in vivo in E. coli
[2] = substrate MAG-Onc, in vivo in E. coli
[3] = substrate MAP-Onc, in vivo in E. coli
[4] = substrate MLA-Onc, in vivo in E. coli
[5] = substrate MLG-Onc, in vivo in E. coli
[6] = substrate MLH-Onc, in vivo in E. coli
[7] = substrate MLL-Onc, in vivo in E. coli
[8] = substrate MLN-Onc, in vivo in E. coli
[9] = substrate MLS-Onc, in vivo in E. coli
[10] = substrate MLV-Onc, in vivo in E. coli
[11] = substrate MQA-Onc, in vivo in E. coli
[12] = substrate MQM-Onc, in vivo in E. coli
[13] = substrate MQN-Onc, in vivo in E. coli
[14] = substrate MQT-Onc, in vivo in E. coli
[15] = substrate MAAWA (SEQ ID NO:15)-RC4
[16] = substrate MAPWA (SEQ ID NO:16)-RC4
[17] = substrate MQAWA (SEQ ID NO:14)-RC4

B1: MetAP-*TG (protein)
chain: AISIKTPEDIEKMRVAGRLAAEVLEMIEPYVKPGVSTGELDRICNDYIVNEQHAVSACLGYHGYPKSVCISINEVVCHGIPDDAKLLKDGDIVNIDVTVIKDGFHGDTSKMFIVGKPTIMGERLCRITQESLYLALRMVKPGINLREIGAAIQKFVEAEGFSVVREYCGHGIGRGFHEEPQVLHYDSRETNVVLKPGMTFTIEPTVNAGKKEIRTMKDGWTVKTKDRSLSAGYEHTIVVTDNGCEILTLRKDDTIPAIISHDE
Lower efficiency of Met removal with MetAP and target on separate vectors (Met-tagged onconase; MQD-initiated onconase or GST, pET29b/pET22b versus same vector): 10–15 % less | Catalytic activity (%): percent of penultimate residue removed (Met-tagged onconase; [1]): 25% | Catalytic activity (%): removal of N-terminal Met (Met-tagged onconase; [1]): 100% | Catalytic activity (%): removal of N-terminal Met (Met-tagged onconase; substrate MAD-Onc, in vivo in E. coli): 99% and 100% | Catalytic activity (%): removal of N-terminal Met (Met-tagged onconase; substrate MAE-Onc, in vivo in E. coli): 96% | Catalytic activity (%): removal of N-terminal Met (Met-tagged onconase; substrate MAF-Onc, in vivo in E. coli): 100% | Catalytic activity (%): percent of penultimate residue removed (Met-tagged onconase; [2]): 57% | Catalytic activity (%): removal of N-terminal Met (Met-tagged onconase; [2]): 80% | Catalytic activity (%): removal of N-terminal Met (Met-tagged onconase; substrate MAK-Onc, in vivo in E. coli): 100% | Catalytic activity (%): removal of N-terminal Met (Met-tagged onconase; substrate MAL-Onc, in vivo in E. coli): 100% | Catalytic activity (%): removal of N-terminal Met (Met-tagged onconase; substrate MAM-Onc, in vivo in E. coli): 96% | Catalytic activity (%): removal of N-terminal Met (Met-tagged onconase; substrate MAN-Onc, in vivo in E. coli): 100% | Catalytic activity (%): percent of penultimate residue removed (Met-tagged onconase; [3]): 38% | Catalytic activity (%): removal of N-terminal Met (Met-tagged onconase; [3]): 72% | Catalytic activity (%): removal of N-terminal Met (Met-tagged onconase; substrate MAQ-Onc, in vivo in E. coli): 97% | Catalytic activity (%): removal of N-terminal Met (Met-tagged onconase; substrate MAR-Onc, in vivo in E. coli): 94% | Catalytic activity (%): removal of N-terminal Met (Met-tagged onconase; substrate MAV-Onc, in vivo in E. coli): 100% | Catalytic activity (%): removal of N-terminal Met (Met-tagged onconase; substrate MDD-Onc, in vivo in E. coli): 68% | Catalytic activity (%): removal of N-terminal Met (Met-tagged onconase; substrate MED-Onc, in vivo in E. coli): 33% | Catalytic activity (%): removal of N-terminal Met (Met-tagged onconase; substrate MFA-Onc, in vivo in E. coli): 2% | Catalytic activity (%): removal of N-terminal Met (Met-tagged onconase; substrate MFD-Onc, in vivo in E. coli): 5% | Catalytic activity (%): removal of N-terminal Met (Met-tagged onconase; substrate MGD-Onc, in vivo in E. coli): 95% | Catalytic activity (%): removal of N-terminal Met (Met-tagged onconase; substrate MHD-Onc, in vivo in E. coli): 92% | Catalytic activity (%): removal of N-terminal Met (Met-tagged onconase; substrate MIA-Onc, in vivo in E. coli): 36% | Catalytic activity (%): removal of N-terminal Met (Met-tagged onconase; substrate MID-Onc, in vivo in E. coli): 22% | Catalytic activity (%): removal of N-terminal Met (Met-tagged onconase; substrate MKA-Onc, in vivo in E. coli): 2% | Catalytic activity (%): removal of N-terminal Met (Met-tagged onconase; substrate MKD-Onc, in vivo in E. coli): 3% | Catalytic activity (%): percent of penultimate residue removed (Met-tagged onconase; [4]): 100(100) % | Catalytic activity (%): removal of N-terminal Met (Met-tagged onconase; [4]): 100(100) % | Catalytic activity (%): removal of N-terminal Met (Met-tagged onconase; substrate MLD-Onc, in vivo in E. coli): 86% and 90% | Catalytic activity (%): percent of penultimate residue removed (Met-tagged onconase; [5]): 100(100) % | Catalytic activity (%): removal of N-terminal Met (Met-tagged onconase; [5]): 100(100) % | Catalytic activity (%): percent of penultimate residue removed (Met-tagged onconase; [6]): 36% | Catalytic activity (%): removal of N-terminal Met (Met-tagged onconase; [6]): 75% | Catalytic activity (%): percent of penultimate residue removed (Met-tagged onconase; [7]): 24% | Catalytic activity (%): removal of N-terminal Met (Met-tagged onconase; [7]): 88% | Catalytic activity (%): removal of N-terminal Met (Met-tagged onconase; substrate MLM-Onc, in vivo in E. coli): 100% | Catalytic activity (%): percent of penultimate residue removed (Met-tagged onconase; [8]): 58% | Catalytic activity (%): removal of N-terminal Met (Met-tagged onconase; [8]): 92% | Catalytic activity (%): removal of N-terminal Met (Met-tagged onconase; substrate MLP-Onc, in vivo in E. coli): 5% | Catalytic activity (%): percent of penultimate residue removed (Met-tagged onconase; [9]): 59% | Catalytic activity (%): removal of N-terminal Met (Met-tagged onconase; [9]): 82% | Catalytic activity (%): removal of N-terminal Met (Met-tagged onconase; substrate MLT-Onc, in vivo in E. coli): 91% | Catalytic activity (%): percent of penultimate residue removed (Met-tagged onconase; [10]): 27% | Catalytic activity (%): removal of N-terminal Met (Met-tagged onconase; [10]): 76% | Catalytic activity (%): removal of N-terminal Met (Met-tagged onconase; substrate MMD-Onc, first Met, in vivo in E. coli): 100% | Catalytic activity (%): percent of penultimate residue removed (Met-tagged onconase; substrate MMD-Onc, second Met, in vivo in E. coli): 73% | Catalytic activity (%): removal of N-terminal Met (Met-tagged onconase; substrate MND-Onc, in vivo in E. coli): 85% | Catalytic activity (%): removal of N-terminal Met (Met-tagged onconase; substrate MPD-Onc, in vivo in E. coli): 93% | Catalytic activity (%): percent of penultimate residue removed (Met-tagged onconase; [11]): 100(100) % | Catalytic activity (%): removal of N-terminal Met (Met-tagged onconase; [11]): 100(100) % | Catalytic activity (%): removal of N-terminal Met (Met-tagged onconase; substrate MQD-Onc, in vivo in E. coli): 91% and 90% | Catalytic activity (%): removal of N-terminal Met (Met-tagged onconase; substrate MQD-Onc, in vivo in E. coli, listed as MetAP-M206T-Q233G): 91% | Catalytic activity (%): removal of N-terminal Met (Met-tagged onconase; substrate MQDWL (SEQ ID NO:10)-Onc, solubility −, same vector): 91% | Catalytic activity (%): removal of N-terminal Met (Met-tagged onconase; substrate MQDWL (SEQ ID NO:10)-Onc, solubility −, target in pET22b co-transformed with MetAP in pET29b): 80% | Catalytic activity (%): removal of N-terminal Met (Met-tagged onconase; substrate MQE-Onc, in vivo in E. coli): 71% | Catalytic activity (%): removal of N-terminal Met (Met-tagged onconase; substrate MQF-Onc, in vivo in E. coli): 80% | Catalytic activity (%): removal of N-terminal Met (Met-tagged onconase; substrate MQK-Onc, in vivo in E. coli): 78% | Catalytic activity (%): percent of penultimate residue removed (Met-tagged onconase; [12]): 59% | Catalytic activity (%): removal of N-terminal Met (Met-tagged onconase; [12]): 100% | Catalytic activity (%): percent of penultimate residue removed (Met-tagged onconase; [13]): 65% | Catalytic activity (%): removal of N-terminal Met (Met-tagged onconase; [13]): 100% | Catalytic activity (%): removal of N-terminal Met (Met-tagged onconase; substrate MQP-Onc, in vivo in E. coli): 25% | Catalytic activity (%): removal of N-terminal Met (Met-tagged onconase; substrate MQR-Onc, in vivo in E. coli): 83% | Catalytic activity (%): percent of penultimate residue removed (Met-tagged onconase; [14]): 26% | Catalytic activity (%): removal of N-terminal Met (Met-tagged onconase; [14]): 76% | Catalytic activity (%): removal of N-terminal Met (Met-tagged onconase; substrate MQW-Onc, in vivo in E. coli): 95% | Catalytic activity (%): removal of N-terminal Met (Met-tagged onconase; substrate MRA-Onc, in vivo in E. coli): 2% | Catalytic activity (%): removal of N-terminal Met (Met-tagged onconase; substrate MRD-Onc, in vivo in E. coli): 2% | Catalytic activity (%): removal of N-terminal Met (Met-tagged onconase; substrate MSD-Onc, in vivo in E. coli): 99% | Catalytic activity (%): removal of N-terminal Met (Met-tagged onconase; substrate MTD-Onc, in vivo in E. coli): 85% | Catalytic activity (%): removal of N-terminal Met (Met-tagged onconase; substrate MVD-Onc, in vivo in E. coli): 80% | Catalytic activity (%): removal of N-terminal Met (Met-tagged onconase; substrate MWA-Onc, in vivo in E. coli): 2% | Catalytic activity (%): removal of N-terminal Met (Met-tagged onconase; substrate MWD-Onc, in vivo in E. coli): 2% | Catalytic activity (%): removal of N-terminal Met (Met-tagged onconase; substrate MWD-Onc, in vivo in E. coli, listed as *TG): inactive | Catalytic activity (%): removal of N-terminal Met (Met-tagged onconase; substrate MYA-Onc, in vivo in E. coli): 8% | Catalytic activity (%): removal of N-terminal Met (Met-tagged onconase; substrate MYD-Onc, in vivo in E. coli): 1% | Catalytic activity (%): removal of N-terminal Met (Met-tagged onconase; substrate MYD-Onc, in vivo in E. coli, listed as *TG): inactive | Catalytic activity (%): percent of penultimate residue removed (RC-RNase4; [15]): 18% | Catalytic activity (%): removal of N-terminal Met (RC-RNase4; [15]): 100% | Catalytic activity (%): percent of penultimate residue removed (RC-RNase4; [16]): 63% | Catalytic activity (%): removal of N-terminal Met (RC-RNase4; [16]): 79% | Catalytic activity (%): percent of penultimate residue removed (RC-RNase4; [17]): 100 (100)^c % | Catalytic activity (%): removal of N-terminal Met (RC-RNase4; [17]): 100 (100)^c % | Catalytic activity (%): removal of N-terminal Met (RC-RNase4; substrate MQDWA (SEQ ID NO:13)-RC4): 93%
